Laboratory results as given in patent US20110135636A1 (SYMPHOGEN A S, published 2011).

B1: antibody 992 (antibody, human IgG1, kappa, V domains shown)
VH: EVQLQQPGSELVRPGASVKLSCKASGYTFTSYWMHWVKQRPGQGLEWIGNIYPGSRSTNYDEKFKSKATLTVDTSSSTAYMQLSSLTSEDSAVYYCTRNGDYYVSSGDAMDYWGQGTSVTVSS
VL: DIQMTQTTSSLSASLGDRVTISCRTSQDIGNYLNWYQQKPDGTVKLLIYYTSRLHSGVPSRFSGSGSGTDFSLTINNVEQEDVATYFCQHYNTVPPTFGGGTKLEIKR
notes: Chimeric mouse/human IgG1 kappa; the VL entry includes the human kappa constant region
B2: antibody 1024 (antibody, human IgG1, kappa, V domains shown)
VH: QVQLQQPGAELVEPGGSVKLSCKASGYTFTSHWMHWVKQRPGQGLEWIGEINPSSGRNNYNEKFKSKATLTVDKSSSTAYMQFSSLTSEDSAVYYCVRYYGYDEAMDYWGQGTSVTVSS
VL: DIVMTQAAFSNPVTLGTSASISCRSSKSLLHSNGITYLYWYLQKPGQSPQLLIYQMSNLASGVPDRFSSSGSGTDFTLRISRVEAEDVGVYYCAQNLELPYTFGGGTKLEIKR
notes: Chimeric IgG1 kappa
B3: antibody 1261 (antibody, human IgG1, kappa, V domains shown)
VH: EVQLVESGGGLVKPGGSLKLSCAVSGFTFSSYVMSWVRQTPEKRLEWVATITSGGRNIYYLDSVKGRFTISRDNAKNTLYLQMSSLRSEDTAMYYCARHEDYRYDGYYAMDYWGQGTSVTVSS
VL: QIVLTQSPAIMSASPGEKVTITCSASSSVSYMHWFQQKPGTSPKLWIYSTSNLASGVPARFSGSGSGTSYSLTISRMEAEDAATYYCQQRSSYPYTFGGGTKLELKR
notes: Chimeric IgG1 kappa
B4: antibody 1347 (antibody, human IgG1, kappa, V domains shown)
VH: QVQLKESGPGLVAPSQSLSITCTVSGFSLTGHGVNWVRQPPGKGLEWLGMIWGDGSTDYNSTLKSRLSISKDNSKSQVFLKMNSLQTDDTARYYCARGYGYLYYFDYWGQGTTLTVSS
VL: ENVLTQSPAIMSASPGEKVTMTCRASSSVSSSYLHWYQQKSGASPKLWIYSTSNLASGVPARFSGSGSGTSYSLTVNSVETEDAATYYCHQYSGFPFTFGSGTKLELKR
notes: Chimeric IgG1 kappa
B5: antibody 1030 (antibody, human IgG1, kappa, V domains shown)
VH: EVQLVESGGGLVKPGGSLKLSCAASGFTFSSYALSWVRQTPERRLEWVASISGVGSTYFPDSVKGRFTMSRDNARNILYLQMSSLRSEDTAMYYCARGSDGYFYAMDYWGQGTSVTVSS
VL: DIVLTQSPASLAVSLGQRATISCRASKSVSTSGYSFMHWYQLKPGQPPKLLIYLASNLESGVPARFSGSGSGTDFTLNIHPVEEEDAATYYCQHSREFPLTFGGGTKLEIKR
notes: Chimeric IgG1 kappa
B6: antibody 1320 (antibody, human IgG1, kappa, V domains shown)
VH: QVQLQQPGAELVKPGASMKLSCKASGYTFTNYWMHWVKQRPGQGLEWIGEINPSNGRTNYNEKFKSKATLTVDKSSSTAYMQLSSLTSEDSGVYYCAKGGNYYDYDWDYWGQGTTLTVSS
VL: DIQMTQTTSSLSASLGDRVTISCSASQDISNYLNWYQQKPDGTVKLLIYHTSTLHSGVPSRFSGSGSGTDYSLTISNLEPEDIATYYCQQYSKLPWTFGGGTKLEIKR
notes: Chimeric IgG1 kappa

molecular target: T1, recombinant human EGFR extracellular domain with 6xHis (human, UniProt P00533 25-645); test: SPR, EGFR ECD without competitor
T1 construct: In-house produced; also called 6xHis EGFR ECD; soluble human EGFR ECD; not shown: 6xHis tag
Experimental: (§1) SPR analysis was performed on a Biacore 3000 machine containing four flow cells. A CM5 Biacore chip was conjugated with 10,000 Resonance units (Ru) polyclonal anti-His antibody to flow cells 1-4 according to the manufacturer's instructions. […] Immediately after antigen injection the maximal binding of the Anti-EGFR mAb without competition was established in each flow cell during a reference run. Briefly 5 μl antibody at a concentration of 40 μg/ml was injected over all flow cells with captured EGFR followed by stripping of the antibody/antigen complex with a low pH acid wash (10 sec. contact time with 10 mM Glycine-HCl, pH2). After the determination of Anti-EGFR antibody maximal binding to each flow cell, a competition run was performed during the same Biacore cycle. Flow cells were first saturated with EGFR ECD antigen followed by injection of different reference antibodies or Anti-EGFR antibodies into separate flow cells using the same antigen saturating conditions as outlined above. This step was immediately followed by a second injection of Anti-EGFR antibody over the flow cell saturated with EGFR antigen and competition antibody to minimize the dissociation of either antigen or blocking antibody. Then the antibody/antigen complexes were stripped off with a low pH acid wash (10 sec. contact time with 10 mM Glycine-HCl, pH 2) and the whole cycle beginning with the reference run was repeated with a new Anti-EGFR antibody. The degree of inhibition of tested Anti-EGFR antibodies were determined by comparing the Ru max value of the individual Anti-EGFR antibody before and after competition by introduction of report points recorded two seconds before and after injection of each sample.

Binder	Rumax reference cycle [Ru]
B1	81
B2	100
B3	157
B4	75

molecular target: T2, full length human EGFR expressed on the cell surface (human, UniProt P00533 25-1210); test: cell ELISA, IgG titrated on unfixed A431-NS cells
T2 construct: whole, on cells; also called EGFR on A431-NS cells; EGFR on HN5 cells
Experimental: (§2) Cell ELISA: The ELISA was performed essentially as described in example 15 with modifications. Cells were left unfixed to allow conformational EGFR flexibility after antibody additions. Briefly, 10,000 A431-NS cells were grown in 96 well ELISA plates containing DMEM with added 0.5% FCS and 1% P/S at 37° C., 5% CO₂ overnight. […] 25 μl DMEM containing 1% BSA was added to wells used for testing of IgG antibodies without added Fab fragments. […] Next, wells were washed four times with PBS and 50 μl of a secondary monoclonal Mouse-anti-Human (Fc specific) HRP conjugate diluted 1:5000 in DMEM containing 1% BSA was added and incubated on ice for 30 min. Finally wells were washed four times with PBS and plates developed by adding 50 μl/well TMB substrate and read at 620 nm every 5-15-30 min. After incubation with substrate the reaction was stopped by addition of 1 M H₂SO₄ and absorbance read at 450 nm. The functional affinity expressed as ED50 values were calculated by subtraction of the average background binding with secondary reagent only, followed by normalization of the binding curves by plotting % maximal binding relative to each antibody tested.
(§3) Investigations of antibody induced binding enhancements were determined by concurrent ELISA binding studies, employing same secondary antibody reagent and incubation times.

Binder	Log ED50
B1	-0.24
B2	-0.01
B5	0.33

molecular target: T1, recombinant human EGFR extracellular …; test: SPR, reference cycle of the run with mix N=6
Experimental: as §1

Binder	Rumax reference cycle [Ru]
B1	85
B2	110
B5	87
B3	135
B4	91

molecular target: T1, recombinant human EGFR extracellular …; test: SPR, reference cycle of the run with mix N=6-1
Experimental: as §1

Binder	Rumax reference cycle [Ru]
B1	71
B2	122
B5	74
B3	139
B4	107

molecular target: T2, full length human EGFR expressed on the …; test: FACS on CHO cells transfected with full length Human EGFR
Experimental: (§4) Bound antibody was detected with a PE labelled goat F(ab′)₂ anti-human IgG FC. Gating was performed on uniform cells (SCC/FCS properties) expressing EGFR. Binding is expressed as % maximal antibody binding at 1 nM concentration.
(§5) Briefly quantitative FACS analysis was performed on a BD FACS array Bioanalyzer System to determine the number of EGFR molecules expressed on the surface of CHO cells transfected with either Human or Cynomolgus full length EGFR. […] Antibodies were incubated with cells for 14 hours on a shaker, to promote full antigen saturation at all antibody concentrations tested, while FACS buffer was added 0.02% NaN₃ and temperature kept at 4° C. to prevent receptor internalization. After incubation, cells were pelleted at 1200 RPM for 5 min at 4° C. and resuspended in 200 ul FACS buffer. Next cells were stained with a secondary Goat F(ab′)₂ anti-Human IgG FcGamma PE diluted 1:500 and incubated for 30 min at 4° C. on a shaker. Finally cells were washed twice in FACS buffer and analyzed on a BD FACS array Bioanalyzer System with gating on EGFR expressing CHO cells displaying uniform forward/side scatter properties.

Binder	EC50 (read off the curve) [nM]
B1	~0.01
B2	~0.01
B6	~0.01

molecular target: T2, full length human EGFR expressed on the …; test: cell ELISA, IgG titrated on unfixed A431-NS cells; given as ED50
Experimental: as §2, §3

Binder	EC50 [nM]
B1	0.6
B2	1
B5	2.2

molecular target: T3, full length Cynomolgus EGFR expressed on CHO cells (Cynomolgus monkey (Macaca fascicularis), UniProt P55245 25-1210 (rhesus entry)); test: FACS on CHO cells transfected with full length Cynomolgus EGFR
T3 construct: The entry was cloned including the signal peptide; also called Cynomolgus full length EGFR
Experimental: as §4, §5

Binder	EC50 (read off the curve) [pM]	binding result
B1	~10	–
B2	~8	–
B6	–	no binding (tested: 1 nM)

molecular target: T1, recombinant human EGFR extracellular …; test: SPR competition, EGFR ECD first saturated with mix N=6 1261+1347+992+1024+1030+1361
Experimental: as §1

Binder	% inhibition [%]	Rumax competition cycle [Ru]
B1	116	-14
B2	113	-14
B5	87	12
B3	95	7
B4	80	19
